Target: Mycobacterium tuberculosis ClpC2 (full length, wild type) (Mycobacterium tuberculosis)
Test: SEC

Substance: Mycobacterium tuberculosis ClpC2 (full length, wild type) (natural protein)
- stoichiometry N: 2

Source: publication PMC10030653, “ClpC2 protects mycobacteria against a natural antibiotic targeting ClpC1-dependent protein degradation” (Communications Biology, 2023)
